From paper PMC6479007, “Phycobilisomes Harbor FNRL in Cyanobacteria” (mBio, 2019)

B1: ferredoxin-NADP+ oxidoreductase, large isoform (FNRL) (enzyme, UniProt Q55318 1-413, looked up)
chain: MYSPGYVATSSRQSDAGNRLFVYEVIGLSQSTMTDGLDYPIRRSGSTFITVPLKRMNQEMRRITRMGGKIVSIKPLEGDSPLPHTEGIAKPSQSEGSGSEAVANPAPESNKTMTTTPKEKKADDIPVNIYRPKTPYIGKVLENYPLVREGAIGTVQHLTFDLSAGDLRYLEGQSIGIIPPGEDDKGKPHKLRLYSIASTRHGDFGDDKTVSLCVRQLEYQNEAGETVQGVCSTYLCNIKEGDDIAITGPVGKEMLLPPDEDANIVMLATGTGIAPFRAFLWRMFKEQHEDYKFKGLAWLIFGIPKSENILYKDDLEKMAAEFPDNFRLTYAISREQQNAEGGRMYIQHRVAENAEELWNLMQNPKTHTYMCGLKGMEPGIDEAFTALAEQNGKEWTTFQREMKKEHRWHVETY
modifications: acetylation on the N terminus in a part of the molecules (6% in CpcG-PBS, 12% in CpcL-PBS)
notes: ferredoxin-NADP+ oxidoreductase, large isoform FNRL, Synechocystis sp; PCC 6803, slr1643; The small FNR isoform of the same gene is not meant; also called large FNR; Fd-NADP+ oxidoreductase; source: endogenous, Synechocystis 6803 wild-type and ΔAB cells; isolated with the phycobilisomes on a sucrose gradient
B2: CpcB (phycocyanin beta subunit) (natural protein, UniProt Q54714 1-172, looked up)
chain: MFDVFTRVVSQADARGEYLSGSQLDALSATVAEGNKRIDSVNRITGNASAIVSNAARALFAEQPQLIQPGGNAYTSRRMAACLRDMEIILRYVTYATFTGDASVLEDRCLNGLRETYVALGVPGASVAAGVQKMKEAALDIVNDPNGITRGDCSAIVAEIAGYFDRAAAAVA
notes: phycocyanin beta subunit CpcB, Synechocystis sp; PCC 6803; N-terminal peptide 1MFDVFTR found cross-linked through the primary amine of M1; In the assay it stood inside the assembled phycobilisome; also called PC beta subunit; source: endogenous, Synechocystis 6803 wild-type and ΔAB cells; in isolated CpcG-PBS and CpcL-PBS
B3: CpcA (phycocyanin alpha subunit) (natural protein)
chain: not shown
notes: phycocyanin alpha subunit CpcA, Synechocystis sp; PCC 6803; cross-linked through its N-terminal M1; In the assay it stood inside the assembled phycobilisome; also called PC alpha subunit; source: endogenous, Synechocystis 6803 cells; in isolated phycobilisomes

What was measured:
[1] = target: T1, CpcL-PBS (CpcL-type phycobilisome, without allophycocyanin) (Synechocystis sp. strain PCC 6803 …, UniProt Q54715 1-162; Q54714 1-172; P73203 1-291; P73204 1-273; P73202 1-83; P74625 …); assay: co-sedimentation; step-gradient sucrose density ultracentrifugation (370,000 x g overnight) of broken cells in 0.8 M K-phosphate pH 7.5 after 2% Triton X-100; blue bands analysed by SDS-PAGE (CBB R-250) and by trypsin digestion with LC-MS/MS label-free quantification (PEAKS; Protein Metrics); conditions: partners not purified
T1 construct: phycocyanin alpha subunit CpcA, Synechocystis sp; PCC 6803; phycocyanin beta subunit CpcB, Synechocystis sp; rod linker protein CpcC1, Synechocystis sp; rod linker protein CpcC2, Synechocystis sp; rod-capping linker CpcD, Synechocystis sp; PCC 6803, ssl3093; CpcL (formerly CpcG2), Synechocystis sp; PCC 6803, sll1471; the first methionine is removed posttranslationally, threonine is the first …

[2] = target: B1; assay: cross-linking; isolated CpcG-PBS and CpcL-PBS (partners co-purified in the native complex), 0.1 uM in 0.2 M K-phosphate, 1:1 BS3-H12/D12, 10 min in the dark at room temperature, cross-linker/PBS 10:1, 50:1 and 100:1; LysC and trypsin digestion, LC-MS/MS, ICC-CLASS and pLink; conditions: both partners purified

fold higher FNRL content than in CpcG-PBS, normalised to CpcC1 [1] [fold]	ratio of FNRL content, CpcL-PBS to CpcG-PBS (manual quantification, Protein Metrics) [1]	ratio of FNRL content, CpcL-PBS/CpcG-PBS (PEAKS label-free quantification) [1]	binding result [2]	Binder
2.4	1.9	1.99		B1
			binds	B2
			binds	B3
